Assay results from PMC2650715 (DNA repair, 2008).
Where a chain is given by its changes, count along the chain named.

Assays:
Assay in all cases: pull-down
[1] = target: T1, Saccharomyces cerevisiae Rdh54 (S. cerevisiae, UniProt P38086 1-958)
T1 sequence (looked up): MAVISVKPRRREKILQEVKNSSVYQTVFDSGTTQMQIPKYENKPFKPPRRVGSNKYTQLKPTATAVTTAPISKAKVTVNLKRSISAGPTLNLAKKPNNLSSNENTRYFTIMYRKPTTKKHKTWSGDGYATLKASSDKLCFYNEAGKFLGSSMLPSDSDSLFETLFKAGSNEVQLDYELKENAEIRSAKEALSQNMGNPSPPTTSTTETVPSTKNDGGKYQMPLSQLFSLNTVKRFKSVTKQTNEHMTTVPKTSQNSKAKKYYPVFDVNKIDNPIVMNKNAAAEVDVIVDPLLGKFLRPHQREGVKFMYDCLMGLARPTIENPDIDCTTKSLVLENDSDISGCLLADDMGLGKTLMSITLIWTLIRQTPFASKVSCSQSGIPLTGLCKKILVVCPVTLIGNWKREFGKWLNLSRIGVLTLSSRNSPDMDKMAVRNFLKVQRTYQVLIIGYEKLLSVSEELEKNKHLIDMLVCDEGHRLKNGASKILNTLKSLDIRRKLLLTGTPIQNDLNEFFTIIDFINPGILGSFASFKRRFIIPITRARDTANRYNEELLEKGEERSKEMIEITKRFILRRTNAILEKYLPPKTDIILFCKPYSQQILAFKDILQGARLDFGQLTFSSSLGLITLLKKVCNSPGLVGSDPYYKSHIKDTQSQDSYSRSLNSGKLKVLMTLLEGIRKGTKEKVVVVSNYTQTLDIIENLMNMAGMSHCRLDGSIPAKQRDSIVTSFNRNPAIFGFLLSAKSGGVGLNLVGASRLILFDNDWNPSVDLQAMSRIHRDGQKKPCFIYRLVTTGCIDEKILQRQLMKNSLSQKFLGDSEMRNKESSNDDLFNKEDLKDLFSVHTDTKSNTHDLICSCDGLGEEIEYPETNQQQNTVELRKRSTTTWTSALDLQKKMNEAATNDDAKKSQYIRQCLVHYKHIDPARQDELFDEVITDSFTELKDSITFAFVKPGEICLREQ

[2] = target: T2, Schizosaccharomyces pombe Rdh54 (S. pombe, UniProt Q09772 1-811)
T2 sequence (looked up): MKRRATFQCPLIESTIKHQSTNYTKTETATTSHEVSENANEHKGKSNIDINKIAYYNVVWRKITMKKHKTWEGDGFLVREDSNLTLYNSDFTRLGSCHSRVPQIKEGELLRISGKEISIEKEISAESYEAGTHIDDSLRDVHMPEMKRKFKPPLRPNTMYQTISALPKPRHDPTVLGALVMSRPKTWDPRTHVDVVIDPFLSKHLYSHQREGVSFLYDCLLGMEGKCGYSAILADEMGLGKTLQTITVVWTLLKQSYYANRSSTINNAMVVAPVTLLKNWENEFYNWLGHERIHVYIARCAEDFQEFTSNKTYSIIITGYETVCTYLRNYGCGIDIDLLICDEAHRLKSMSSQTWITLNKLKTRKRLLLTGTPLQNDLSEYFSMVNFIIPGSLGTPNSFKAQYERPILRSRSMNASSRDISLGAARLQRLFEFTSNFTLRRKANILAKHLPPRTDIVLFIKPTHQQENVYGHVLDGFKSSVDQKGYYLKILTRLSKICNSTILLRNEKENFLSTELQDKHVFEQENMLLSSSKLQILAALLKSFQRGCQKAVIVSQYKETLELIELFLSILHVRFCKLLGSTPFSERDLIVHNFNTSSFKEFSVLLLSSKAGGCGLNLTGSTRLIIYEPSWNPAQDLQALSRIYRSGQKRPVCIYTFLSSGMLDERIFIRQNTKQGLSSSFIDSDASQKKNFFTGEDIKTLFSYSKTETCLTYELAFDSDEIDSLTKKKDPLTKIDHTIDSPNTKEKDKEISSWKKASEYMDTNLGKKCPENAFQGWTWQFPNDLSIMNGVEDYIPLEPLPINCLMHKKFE

[3] = target: T3, Saccharomyces cerevisiae Rdh54 K352R mutant variant (S. cerevisiae, UniProt P38086 1-958, K352R)
T3 sequence (looked up): T1 sequence (looked up) with K352R

Measured: binding result

B1: Schizosaccharomyces pombe Dmc1 (enzyme, S. pombe, UniProt O42634 1-332, looked up)
chain: MEEFAEGNDDEQMIFSDIEDLTAHGIGMTDIIKLKQAGVCTVQGVHMSTKRFLLKIKGFSEAKVDKLKEAASKMCPANFSTAMEISQNRKKVWSISTGSEALNGILGGGIQSMSITEVFGEFRCGKTQMSHTLCVTAQLPRDMGGAEGKVAFIDTEGTFRPDRIKAIAERFGVDADQAMENIIVSRAYNSEQQMEYITKLGTIFAEDGQYRLLIVDSIMALFRVDYSGRGELSERQQKLNIMLARLNHISEEFNVAVFVTNQVQADPGAAMMFASNDRKPVGGHVMAHASATRLLLRKGRGEERVAKLNDSPDMPEAECSYVITPGGIADVS
modifications: covalently coupled to Affi-Gel 15 beads
binds: [1] | [2] | [3]
